This note sets out measurements from PMC8717942.

The target of assay [1] is K29-linked diubiquitin (UniProt P0CG48). The assay can be described thus: crystal structure.
Assay [2] has the same target. In words: Western blot. (In general: Immunoblotting shows a protein as a band on a membrane.)
The target of assay [3] is His-tagged K29-linked diubiquitin (UniProt P0CG48). In words: SPR.
Assay [4] addresses biotinylated K29-linked diUb (chemically synthesized) (UniProt P0CG48). The assay can be described thus: ELISA. On the technique in general: In an ELISA, binding on a coated surface is turned into a signal by an enzyme label.

For orientation: stoichiometry N means the number of molecules, sites or subunits per partner or assembly. Broadly, the Kd is a measure of binding affinity in units of concentration. The low end stands for a tighter complex, the high end for a looser complex. Usually EC50 stands for the concentration giving half of the maximal effect.

B1: sAB-K29 (Fab, V domains shown)
VH: EVQLVESGGGLVQPGGSLRLSCAASGFNVSYSSIHWVRQAPGKGLEWVASIYSYYGSTYYADSVKGRFTISADTSKNTAYLQMNSLRAEDTAVYYCARYGFAGQPETWYAMDYWGQGTLVTVSS
VL: DIQMTQSPSSLSASVGDRVTITCRASQSVSSAVAWYQQKPGKAPKLLIYSASSLYSGVPSRFSGSRSGTDFTLTISSLQPEDFATYYCQQAYVEPITFGQGTKVEIK
In the case of B1, the stoichiometry N in the assay with K29-linked diubiquitin [1] came out at 1. In addition, in the assay with K29-linked diubiquitin [2], the fold more sensitive than for the other diUbs tested is above 320 fold and the lowest amount detected is 0.78 ng. Moreover, in assay [3], the Kd came out at 3.13 nM. In assay [4], this molecule gave an EC50 of 1.46 nM.
